Test results reported in publication doi:10.1101/2020.05.24.113654 (bioRxiv, 2020).
Changes are numbered by the printed parent chain. In names and notes the source's numbering stands.

Target: T1, Cre^Cat (interdomain linker and C-terminal catalytic domain of Cre recombinase, residues 127-343) (UniProt P06956 127-343)
T1 sequence (looked up): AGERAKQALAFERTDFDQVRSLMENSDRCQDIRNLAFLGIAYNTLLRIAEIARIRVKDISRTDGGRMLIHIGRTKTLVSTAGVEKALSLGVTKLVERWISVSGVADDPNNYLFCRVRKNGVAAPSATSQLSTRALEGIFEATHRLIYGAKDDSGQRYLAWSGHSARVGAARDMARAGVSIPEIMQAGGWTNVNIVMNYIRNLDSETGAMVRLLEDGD
Experiment: intermolecular PRE-NMR

- binding result: binds
B1: MTSL tagged-Cre^Cat C155A/C240A/D343C (domain or fragment, UniProt P06956 127-343, looked up)
chain: T1 sequence (looked up) with C29A, C114A, D217C
modifications: MTSL paramagnetic spin probe on C-terminal residue C343
